± gives the uncertainty stated by the source.
Assay: self-splicing fitness, log relative to wild type (ln ratio); higher = more splicing; Tetrahymena group I intron in knt gene, E. coli kanamycin selection, DiMSum; sequences stand for … in CUCUCU…GGAGGGAAAAGUUAUCAGGCAUGCACCUGGUAGCUAGUCUUUAAACCAAUAGAUUGCAUCGGUUUAAAAGGCAAGACCGUCAAAUUGCGGGAAAGGGGUCAACAGCCGUUCAGUACCAAGUCUCAGGGGAAACUUUGAGAUGGCCUUGCAAAGGGUAUGGUAAUAAGCUGACGGACAUGGUCCUAACCACGCAGCCAAGUCCUAAGUCAACAGAUCUUCUGUUGAUAUGGAUGCAGUUCACAGACUAAAUGUCGGUCGGGGAAGAUGUAUUCUUCUCAUAAGAUAUAGUCGGACCUCUCCUUAAUGGGAGCUAGCGGAUGAAGUGAUGCAACACUGGAGCCGCUGGGAACUAAUUUGUAUGCGAAAGUAUAUUGAUUAGUUUUGGAGUACUCGUGGUCG
Outline: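 Fitness was computed with DiMSum as the error-weighted combination of replicate fold changes, kanamycin versus none, each normalised to wild type. The library randomised all eight intron nucleotides of the P1ex region, with the intron placed in the knt kanamycin-resistance gene on pET-22b(+) in E. coli BL21(DE3). Six replicate transformations were grown overnight at 37°C or 30°C on LB agar with or without 25 μg/mL kanamycin, plus 100 μg/mL carbenicillin, 50 μM IPTG and 0.2% rhamnose. Pooled colonies were amplicon-sequenced on an Illumina HiSeq 2500.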

Sequence | self-splicing fitness (ln) (30 °C) | self-splicing fitness (ln) (37 °C)
UCUAAGCAAUAUUACGGAAA | -2.93 ± 0.28 | -1.9 ± 0.27
CUACAGCAAUAUUACGCUUC |  | -2.88 ± 0.44
CCAAAGCAAUAUUACGUUUU | -3.91 ± 0.14 | -2.75 ± 0.17
AUAAAGCAAUAUUACGUCGU | -0.554 ± 0.046 | 0.314 ± 0.064
CGGGAGCAAUAUUACGUCGU | -3.3 ± 0.26 | -2.35 ± 0.3
AGCAAGCAAUAUUACGUUGU | -3.33 ± 0.12 | -2.87 ± 0.14
UGGCAGCAAUAUUACGUUCC | -2.02 ± 0.17 | -1.09 ± 0.18
AGCUAGCAAUAUUACGGGGU | -2.6 ± 0.16 | -2.13 ± 0.18
CUAUAGCAAUAUUACGCCAU | -2.66 ± 0.39 | -2.45 ± 0.37
GUCAAGCAAUAUUACGAUAG | -4.6 ± 0.42 | -3.02 ± 0.47
UACGAGCAAUAUUACGAUGA | -2.05 ± 0.19 | -2.41 ± 0.2
UGACAGCAAUAUUACGUGUA | -1.58 ± 0.081 | -0.841 ± 0.081
AUAUAGCAAUAUUACGCUCG | -0.992 ± 0.12 | 0.0571 ± 0.18
UAUCAGCAAUAUUACGUCAU | -1.88 ± 0.13 | -1.42 ± 0.15
CUACAGCAAUAUUACGAAUU | -3.04 ± 0.14 | -2.94 ± 0.24
CCGUAGCAAUAUUACGGCGA | -2.54 ± 0.21 | -2.62 ± 0.25
ACAGAGCAAUAUUACGGGCA | -2.58 ± 0.19 | -0.773 ± 0.15
GGUCAGCAAUAUUACGGGUG | -1.3 ± 0.067 | -0.637 ± 0.072
GCGCAGCAAUAUUACGCCUG | -2.75 ± 0.15 | -1.48 ± 0.15
GGCCAGCAAUAUUACGUCGA | -2.72 ± 0.21 | -1.46 ± 0.2
AGCCAGCAAUAUUACGUAUA | -3.4 ± 0.14 | -2.69 ± 0.17
UCAAAGCAAUAUUACGUGGC | -3.62 ± 0.32 | -2.45 ± 0.32
AGGAAGCAAUAUUACGCAGA | -3.5 ± 0.31 | -1.33 ± 0.14
AAGAAGCAAUAUUACGUAGG | -2.09 ± 0.082 | -1.14 ± 0.12
AUUGAGCAAUAUUACGAACG | -2.34 ± 0.18 | -0.91 ± 0.3

Sequence | self-splicing fitness (ln) (30 °C) | self-splicing fitness (ln) (37 °C)
UUGAAGCAAUAUUACGCAGC | -3.74 ± 0.3 | -1.05 ± 0.34
UCUAAGCAAUAUUACGUGCC | -4.37 ± 0.39 | 
UCACAGCAAUAUUACGUUAA | -2.66 ± 0.12 | -1.83 ± 0.11
UUUGAGCAAUAUUACGUGUU | -2.61 ± 0.32 | -3.3 ± 0.33
UCUGAGCAAUAUUACGGCGA | -0.309 ± 0.12 | 0.122 ± 0.18
ACGAAGCAAUAUUACGGGGU | -3.47 ± 0.15 | -2.33 ± 0.17
UGAUAGCAAUAUUACGACAU | -2.587 ± 0.02 | -1.26 ± 0.035
GGUAAGCAAUAUUACGCAUG | -2.62 ± 0.12 | -1.13 ± 0.11
AGGCAGCAAUAUUACGUACU | -0.408 ± 0.079 | 0.323 ± 0.12
GUGGAGCAAUAUUACGGUAA | -2.05 ± 0.11 | -2.95 ± 0.19
UACGAGCAAUAUUACGUCCA | -2.8 ± 0.27 | -1.69 ± 0.27
UGUUAGCAAUAUUACGAGCG | 0.176 ± 0.095 | -0.175 ± 0.12
AUGAAGCAAUAUUACGUAUG | -1.78 ± 0.082 | -1.26 ± 0.098
CUCGAGCAAUAUUACGCGUG | -3.43 ± 0.26 | -2.03 ± 0.19
UCCCAGCAAUAUUACGCGAG | -3.41 ± 0.14 | -2.91 ± 0.2
UCCUAGCAAUAUUACGUUUA | -2.15 ± 0.18 | -2.54 ± 0.23
UCACAGCAAUAUUACGCAGG | -3.13 ± 0.13 | -1.52 ± 0.11
AGGGAGCAAUAUUACGGGCG | -4.23 ± 0.32 | -2.35 ± 0.25
ACUUAGCAAUAUUACGAUUG | -3.17 ± 0.2 | -0.306 ± 0.16
CUAAAGCAAUAUUACGUCAG | -0.715 ± 0.064 | 0.333 ± 0.1
CGUCAGCAAUAUUACGUUAG | -0.494 ± 0.065 | -0.365 ± 0.094
CCCGAGCAAUAUUACGUAGU | -3.11 ± 0.15 | -2.58 ± 0.19
AGUGAGCAAUAUUACGACAC | -2.16 ± 0.29 | -1.64 ± 0.17
AAUCAGCAAUAUUACGGGCG | -0.742 ± 0.059 | -0.382 ± 0.075
GUCUAGCAAUAUUACGAAUG | -2.56 ± 0.21 | -1.43 ± 0.19

Sequence | self-splicing fitness (ln) (30 °C) | self-splicing fitness (ln) (37 °C)
AAAAAGCAAUAUUACGUGUC | -3.44 ± 0.17 | -1.79 ± 0.17
ACAAAGCAAUAUUACGUGAC | -3.4 ± 0.11 | -1.37 ± 0.092
UGUCAGCAAUAUUACGUAUG | -0.239 ± 0.063 | 0.657 ± 0.086
GAAAAGCAAUAUUACGUGUA | -2.58 ± 0.11 | -0.56 ± 0.085
GAGCAGCAAUAUUACGUCCA | -1.3 ± 0.3 | -0.418 ± 0.2
AGACAGCAAUAUUACGAUCU | -2.62 ± 0.12 | -0.863 ± 0.1
CGUUAGCAAUAUUACGUUCA | -0.69 ± 0.078 | -0.192 ± 0.083
GCAUAGCAAUAUUACGGCGC | -0.822 ± 0.17 | -0.485 ± 0.2
UGUCAGCAAUAUUACGAGCA | -0.272 ± 0.12 | -0.347 ± 0.13
GCGCAGCAAUAUUACGUGGU | -2.14 ± 0.081 | -1.02 ± 0.086
UGUGAGCAAUAUUACGUAAA | -2.31 ± 0.15 | -1.31 ± 0.21
GUAAAGCAAUAUUACGAAUU | -2.11 ± 0.16 | -0.966 ± 0.18
ACAUAGCAAUAUUACGCAUA | -3.01 ± 0.17 | -1.85 ± 0.12
UCGAAGCAAUAUUACGGGCA | -0.603 ± 0.094 | -0.507 ± 0.1
AAACAGCAAUAUUACGACUC | -0.613 ± 0.077 | -0.502 ± 0.098
UAUAAGCAAUAUUACGAAGU | -3.7 ± 0.35 | -2.71 ± 0.38
GAAGAGCAAUAUUACGAUCU | -1.21 ± 0.14 | -0.955 ± 0.18
ACGCAGCAAUAUUACGGAUA | -3.47 ± 0.18 | -1.7 ± 0.12
UACCAGCAAUAUUACGUACU | -2.92 ± 0.17 | -1.4 ± 0.15
GUUAAGCAAUAUUACGCUCG | -0.539 ± 0.13 | 0.0474 ± 0.16
CCACAGCAAUAUUACGGUCC | -2.75 ± 0.32 | -2.32 ± 0.32
UCUGAGCAAUAUUACGGUGA | -0.612 ± 0.11 | -0.1 ± 0.13
UGUAAGCAAUAUUACGGGCG | 0.00753 ± 0.092 | 0.237 ± 0.11
CUGCAGCAAUAUUACGAAGU | -4.26 ± 0.34 | 
UAGGAGCAAUAUUACGCCUG | -3.57 ± 0.47 | -1.23 ± 0.33

From the supplement of paper PMC7877785
